# What was measured:
# [1] = target: LexA (Escherichia coli, UniProt P0A7C2); details: BL21-CP cells expressing the lariat, 0.1 μg/mL MMC, 0-3 hours
# Excerpt: FIG. 21. Biological Activity of L2 Lariat and Cyclic Peptide. […] Error bars represent the standard deviation of three independent experiments.
# [2] = tested on: SOS-regulated sulA promoter (sulA-GFP); experiment: MMC-induced expression of sulA-GFP (SOS response genes), flow cytometry; format: cell-based, E. coli; details: SMR6039-DE3 with pETIL-L2, IPTG-induced versus uninduced, 0.1 μg/mL MMC
# Excerpt: (§1) FIG. 21. Biological Activity of L2 Lariat and Cyclic Peptide.
# We used the SMR6039 E. coli strain, which expresses GFP under the control of a SOS-regulated sulA promoter (Hastings, P. J. et al. (2004) PLoS Biol. 2:e399) to monitor induction of the SOS response pathway. We used the λDE3 Lysogenization Kit (Novagen) to modify SMR6039 to express T7 RNA polymerase, which allows expression of the L.2 lariat from the T7 promoter in pETIL-L2 plasmid. […] We measured the GFP fluorescence of the samples using flow cytometery (Epics X L, Coultier, Mississauga, ON). We scored cells as positive for SOS induction in they expressed more than one fluorescence unit of GFP.
# [3] = tested on: BL21-CP cells; experiment: Bacterial viability (survival) assay with and without MMC; format: cell-based, E. coli; details: one hour
# Description: as §1
# FIG. 22. […] Survival assay for BL21-CP cells treated synthetic linear L2 peptide. Cell survival is reported relative to the untreated control.
# We performed cell viability assays as described by Lin and Little (Lin, L. L. & Little, J. W. (1988) Bacteriol. 170:2163-2173). For assays where L2 lariat is expressed from pET28b plasmid, we cultured BL21(DE3)-CP containing pETIL-L2 or pETIL-01 to an OD600 of 0.4 in LB-KAN at 37° C. We split the samples in two and induced one sample with 1 mM IPTG for 1 hour and left the other the other sample uninduced. […] We removed 10 μL and diluted it […] in ice cold LB (1 mL) for a zero time point control. We incubated the remaining sample at 37° C. for 1 hour and then removed 10 μL and diluted 1000-fold into 1 mL ice-cold LB. We plated a 60 μl aliquot from the 0 and 1 hour samples on LB plates and incubated the plates at 37° C. overnight.
# [4] = Amount of lactone-cyclized L2 lariat, ESI-TOF MS and Na18OH cleavage; format: physicochemical
# Excerpt: FIG. 17. Analysis of L2 Lariat. […] (i) Yeast growth on nonselective His^−,Trp^− glucose media. […] (i) Lariat cyclized through a lactone bond. (ii) Lariat cleaved prior to Na^18OH treatment.
# FIG. 20. Quantification of Lariat Prior to MS analysis. (a) Analysis of ^18O incorporation at the tyrosine carboxylic acid at position (IN−1). Trypsin digest of the Na^18OH treated lariat produces a peptide fragment containing tyrosine at position (IN−1) ([…]). The ^16O product has a calculated mass of 966.420 m/z and the ^18O product has a calculated mass of 968.420 m/z. (b) Mass spectrometry analysis of […] peptide fragment from the Na^16OH or Na^18OH treated samples over layed with the theoretical isotope distribution (MS-ISOTOPE software). In the Na^18OH treated sample there is a large deviation from the theoretical distribution indicating the presence of more than one peptide. […] The 1+ and 2+ charged fragments were analyzed and similar results were observed. Only the 1+ charge is shown. (d) Overlay of the sum of the calculated contributions of the ^18O and […] on the observed […] peptide fragment spectrum. (e) Analysis of ^18O incorporation at the serine side chain at position (IC+1). Trypsin digest of the Na^18OH treated lariat produces a peptide fragment containing serine at position (IC+1) ([…]). The mass of this fragment is 2590.352 m/z corresponding to a product 1 Da heavier than the predicted ^18O incorporated product. A 1 Da shift can be attributed to deamidation of asparagine. […] The 2+, 3+4+and 5+charged fragments were analyzed and similar results were obtained. […] (h) Overlay of the sum of the calculated contributions of the ^18O and ^16O peptides on the observed […] peptide fragment spectrum.
# We used LC-ESI-TOF MS to confirm the molecular weight of the His-tag lariat purified from E. coli. To confirm the presence of the lariat lactone prior to MS analysis, we treated His-tag lariat with 0.5 M Na^18OH, purified the products using reverse-phase HPLC, digested them with trypsin, and analyzed the molecular weight of the trypsin fragments using LC-ESI-TOF MS. […]
# [5] = His-tag lariat from pETIL-L2 in BL21-CP
# LexA, sequence (P0A7C2 whole entry): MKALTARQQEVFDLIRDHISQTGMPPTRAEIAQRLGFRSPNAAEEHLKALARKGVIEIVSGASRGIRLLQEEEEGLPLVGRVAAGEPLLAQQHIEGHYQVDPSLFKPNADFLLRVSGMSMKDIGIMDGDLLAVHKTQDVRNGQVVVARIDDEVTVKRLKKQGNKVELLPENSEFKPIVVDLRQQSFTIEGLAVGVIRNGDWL
substance,measurement,setting,value
"L2 lariat: anti-LexA lariat, lactone-cyclized noose sequence (RSWDLPGEY), expressed from Ssp DnaE lariat intein with Asn to Ala at IC−1 (G7)",MMC-induced LexA cleavage,[1],not observed after three hours
same,percentage of GFP expressing cells (sulA-GFP) after MMC,[2],decreases
same,viability with lariat expression plus MMC,"[3]; of the control, IPTG induction plus MMC 0.1 μg/mL",< 1%
same,viability on expression of the lariat alone,"[3]; of the uninduced controls, IPTG induction, no MMC, 0.85% NaCl",~35%
same,fraction of product corresponding to hydrolyzed lariat (8669 Da) by MS,[4]; [5],85%
same,fraction of product corresponding to the L2 lariat (8651 Da) by MS,[4]; [5],15%
same,lariat cyclized prior to MS analysis,[4]; from fraction of 18O incorporated after Na18OH cleavage and trypsin digest,46%
